In patent US7977317B2, “Compositions and methods for modulating blood-brain barrier transport” (Raptor Pharmaceutical Inc., priority 2001, dated 2011):
“Also recorded” adds a separate entry of the source.

B1: lactoferrin: lactoferrin (Lf), LRP ligand used as competitor (protein, UniProt P02788 20-710, looked up)
Lactotransferrin: GRRRSVQWCAVSQPEATKCFQWQRNMRKVRGPPVSCIKRDSPIQCIQAIAENRADAVTLDGGFIYEAGLAPYKLRPVAAEVYGTERQPRTHYYAVAVVKKGGSFQLNELQGLKSCHTGLRRTAGWNVPIGTLRPFLNWTGPPEPIEAAVARFFSASCVPGADKGQFPNLCRLCAGTGENKCAFSSQEPYFSYSGAFKCLRDGAGDVAFIRESTVFEDLSDEAERDEYELLCPDNTRKPVDKFKDCHLARVPSHAVVARSVNGKEDAIWNLLRQAQEKFGKDKSPKFQLFGSPSGQKDLLFKDSAIGFSRVPPRIDSGLYLGSGYFTAIQNLRKSEEEVAARRARVVWCAVGEQELRKCNQWSGLSEGSVTCSSASTTEDCIALVLKGEADAMSLDGGYVYTAGKCGLVPVLAENYKSQQSSDPDPNCVDRPVEGYLAVAVVRRSDTSLTWNSVKGKKSCHTAVDRTAGWNIPMGLLFNQTGSCKFDEYFSQSCAPGSDPRSNLCALCIGDEQGENKCVPNSNERYYGYTGAFRCLAENAGDVAFVKDVTVLQNTDGNNNEAWAKDLKLADFALLCLDGKRKPVTEARSCHLAMAPNHAVVSRMDKVERLKQVLLHQQAKFGRNGSDCPDKFCLFQSETKNLLFNDNTECLARLHGKTTYEKYLGPQYVAGITNLKKCSTSPLLEACEFLRK
B2: p97: recombinant human melanotransferrin (p97), provided by Synapse Technologies (protein, UniProt P08582 20-709, looked up)
Melanotransferrin: GMEVRWCATSDPEQHKCGNMSEAFREAGIQPSLLCVRGTSADHCVQLIAAQEADAITLDGGAIYEAGKEHGLKPVVGEVYDQEVGTSYYAVAVVRRSSHVTIDTLKGVKSCHTGINRTVGWNVPVGYLVESGRLSVMGCDVLKAVSDYFGGSCVPGAGETSYSESLCRLCRGDSSGEGVCDKSPLERYYDYSGAFRCLAEGAGDVAFVKHSTVLENTDGKTLPSWGQALLSQDFELLCRDGSRADVTEWRQCHLARVPAHAVVVRADTDGGLIFRLLNEGQRLFSHEGSSFQMFSSEAYGQKDLLFKDSTSELVPIATQTYEAWLGHEYLHAMKGLLCDPNRLPPYLRWCVLSTPEIQKCGDMAVAFRRQRLKPEIQCVSAKSPQHCMERIQAEQVDAVTLSGEDIYTAGKTYGLVPAAGEHYAPEDSSNSYYVVAVVRRDSSHAFTLDELRGKRSCHAGFGSPAGWDVPVGALIQRGFIRPKDCDVLTAVSEFFNASCVPVNNPKNYPSSLCALCVGDEQGRNKCVGNSQERYYGYRGAFRCLVENAGDVAFVRHTTVFDNTNGHNSEPWAAELRSEDYELLCPNGARAEVSQFAACNLAQIPPHAVMVRPDTNIFTVYGLLDKAQDLFGDDHNKNGFKMFDSSNYHGQDLLFKDATVRAVPVGEKTTYRGWLGLDYVAALEGMSSQQC

Assays:
RBE4 cells = assay: Competition of [125I]-p97 binding on rat brain endothelial cells (RBE4); details: competitor 10 micromolar, 2 hrs at 4° C. (FIG. 4)
Protocol: FIG. 4. Binding of p97 on rat brain endothelial cells. Binding p97 was performed with RBE4 that were pre-incubated 2 hrs in Ringer-Hepes. For the binding experiments, cells in 24-well microplates were incubated for 2 h at 4° C. in Ringer/Hepes in the presence of [^125I]-p97 (25 nM) and 10 micromolar concentrations of cold-p97, transferrin or lactoferin, respectively. At the end of the incubation, the cells were gently washed at 4° C. three times with 4 ml of cold-PBS. RBE4 cells were then lysed with Triton X-100 and the associated radioactivity of with cell lysates was determined.
RBE4 cells were grown in monolayers in 24 wells plastic tissue culture flasks at 37° C. under 5% CO2 in minimum essential medium Alpha and Ham's F10 (1:1) supplemented with 10% heat inactivated fetal bovine serum. For p97 binding experiments, RBE4 cells were pre-incubated at 37° C. for 2 hrs in Ringer/Hepes. ^125I-p97 in 200 μl of Ringer/Hepes was added to RBE4 cells for 2 hrs at 4° C. in the presence or absence of high concentration of cold-p97, human holo-transferrin or human lactoferrin. After the incubation, the cells were washed 4 times with PBS and the ^125I-p97 associated with the cells was measured.

BBCEC monolayers [1] = assay: Accumulation of ligands in BBCEC monolayers; type: cell-based, bovine; details: for Accumulation in the cell monolayer of heat denatured ligand compared to normal ligand: ligand boiled 30 mins, 37° C. (FIG. 7)
Protocol: (§1) FIG. 7 illustrates the results of experiments where the ligands p97, Lf and Tf were heated or not heated prior to the binding study. In all cases, binding experiments were conducted in the transwell apparatus as described previously, with the exception that binding was conducted at either 4° C. or at 37° C. For the 37° C. trial, a separate experiment was conducted where the ligand was boiled for 30 mins then rapidly cooled prior to administration on the transwell plates.
(§2) FIG. 13 illustrates the transcytosis and accumulation of p97 and transferrin in BBCEC monolayers. FIG. 13a, Transcytosis experiments were performed at 37° C. (solid bars) or 4° C. (white bars). [^125I]-p97 or bovine [^125I]-holo-transferrin (1 mg/ml) was added to the upper side of the cell-covered filter. At the end of the experiment, radiolabelled proteins were measured in the lower chamber of each well by TCA precipitation (n=4). Controls were also performed at 37° C. with denatured [^125I]-p97 or bovine [^125I]-holo-transferrin boiled for 30 min (grey bars) (n=2); FIG. 13b, Biospecific interaction analysis was performed with native or boiled p97 for the indicated times. MAb L235 (5 μg) was immobilized on a sensor chip (SM5) using standard procedures incorporating NHS, EDC and ethanolamine. Native and boiled p97 (5 to 30 min) diluted at 1 mg/ml in Ringer/Hepes was cooled and injected into the BIAcore. The surface plasmon resonance response obtained for native p97 and boiled p97 was plotted (in relative units (RU)) as a function of time; FIG. 13c, The accumulation of both proteins into BBEC cells were also measured. Briefly, after incubation at 37° C. (solid bars) or 4° C. (white bars) with either [^125I]-protein, cells were washed four times with cold PBS. Accumulation of both denatured proteins (grey bars) was also measured at 37° C. Filters were then removed, and the radioactivity associated with the cells was quantified (n=3).
as §1, with “In” for “FIG. 7 illustrates the results of experiments where the ligands p97, Lf and Tf were heated or not heated prior to the binding study. In”

BBCEC monolayers [2] = assay: Transcytosis across BBCEC monolayers (in vitro BBB model); type: cell-based, bovine; details: for Effect on transcytosis of 125I-p97: competitor 5 micromolar (FIG. 10a, 10b)
From the text: FIG. 10 assesses the ability of several agents to interfere with p97 transyctosis. FIG. 10a, transcytosis of I125-P97 was compared in the presence of cold p97 (5 micromolar), Lf (5 micromolar), and Tf (5 micromolar). […] FIG. 10c, RAP, a known poly-peptide inhibitor of the LDL-Receptor family was applied to the cells (25 micrograms/ml).
FIG. 11 examines the accumulation and transcytosis of p97. FIG. 11a, of [^125I]-p97, [^125I]-BSA and [^125I]-holo-transferrin one hour after i.v. injection. The radioactivity in brain was compared between the three compounds. (n=3); FIG. 11b, Accumulation of p97 and transferrin into the mouse brain parenchyma. In situ brain perfusion was performed with human [^125I]-p97 or [^125I]-holo-transferrin at a final concentration of 10 nM via a catheter inserted in the right common carotid artery. The volume of distribution (VD) of [^125I]-proteins were obtained in the whole brain homogenate (white bars), in brain capillaries (solid bars) and in brain parenchyma (hatched bars) after isolation of the right hemisphere and capillary depletion. Results were obtained for p97 (n=10) and for holo-transferrin (n=6); FIG. 11c, Transcytosis of p97 across BBCEC monolayers. Transcytosis experiments were performed 37° C. (open circles) and 4° C. (closed circles) with BBCEC monolayers. [^125I]-p97 (1 mg/ml) was added to the upper side of the cell-covered filter. One representative experiment is shown (n=4); FIG. 11d, Preferential transport of p97 across the BBCEC monolayers. Apical-to-basal and basal-to-apical transport of [^125I]-p97 (25 nM) was measured for 2 hrs at 37° C. At the end of the experiment, [^125I]-p97 was assessed in the lower or upper chambers of each well by TCA precipitation (n=4).
as §2
FIG. 14 illustrates the stability of p97 and integrity of the BBCEC monolayers following p97 transcytosis. FIG. 14a, Transcytosis experiments were performed at 37° C. and 4° C. by adding p97 (1 mg/ml) to the upper compartment. At the end of the experiment, 50 μl from each lower chamber was used for SDS-polyacrylamide gel electrophoresis. After electrophoresis, the gels were stained with Coomassie Blue. A standard curve was also made with known amounts of recombinant p97 (0-2 μg); FIG. 14b. The gels were dried and scanned to quantify the amount of intact p97 that crossed the BBCEC monolayers at 37° C. and 4° C. (n=3); FIG. 14c, Effect of p97 on sucrose permeability of BBCE cell monolayers co-cultured with astrocytes. […]

Row | Molecule | Inhibition of [125I]-p97 binding to RBE4 cells (RBE4 cells) | Accumulation of Lf compared with p97 at the end of the experiment (BBCEC monolayers [1]; FIG. 7) | Accumulation in the cell monolayer of heat denatured ligand compared to normal ligand (BBCEC monolayers [1]) | Effect on transcytosis of 125I-p97 (BBCEC monolayers [2]) | Accumulation in BBCE cells (BBCEC monolayers [1]; native proteins (FIG. 13c)) | [125I]-p97 transport apical-to-basolateral relative to basolateral-to-apical (BBCEC monolayers [2]; 25 nM, after 2 hrs at 37° C. (FIG. 11d)) | Temperature dependence of p97 transcytosis (BBCEC monolayers [2]; 37° C. versus 4° C., apical to basolateral) | Transport from the apical to the basolateral surface of ECs compared with transferrin (BBCEC monolayers [2]; 37° C., 1 mg/ml (FIG. 13a)) | Saturability of p97 transcytosis (BBCEC monolayers [2]; FIG. 9) | Degradation of p97 after transcytosis (BBCEC monolayers [2]; SDS-PAGE of lower compartment, 30-120 min (FIG. 14a)) | Effect of heat-denaturation on passage through BBCEC monolayers (BBCEC monolayers [2]; boiled 30 min, 37° C. (FIG. 13a)) | Membrane bound p97 transcytosed (BBCEC monolayers [2]; in 10 minutes (FIG. 20)) | Total amount of intact p97 after transendothelial transcytosis (BBCEC monolayers [2]; p97 1 mg/ml, gel densitometry (FIG. 14b))
1 | B1 | competitively inhibit | almost twice as high | significantly lower accumulation | only the cold p97 successfully reduced | – | – | – | – | – | – | – | – | –
2 | B2 | competitively inhibit | – | significantly lower accumulation | successfully reduced | 5.7 μg/cm2 | about 3 fold | significantly higher at 37 °C than at 4 °C; also recorded: dramatic reduction | much higher than for transferrin | saturable phenomenon | no apparent degradation | reduced the passage | 80% | 35 μg/cm^2
